Reference: paper PMC6910826

Target: 6xHis-Zasp52-PK-FLAG (Drosophila melanogaster)
Assay: cross-linking; purified 6xHis-Zasp52-PK-FLAG incubated with EGS or alone; SDS-PAGE and anti-Flag western blot

Sequence of 6xHis-Zasp52-PK-FLAG (A1ZA47 whole entry): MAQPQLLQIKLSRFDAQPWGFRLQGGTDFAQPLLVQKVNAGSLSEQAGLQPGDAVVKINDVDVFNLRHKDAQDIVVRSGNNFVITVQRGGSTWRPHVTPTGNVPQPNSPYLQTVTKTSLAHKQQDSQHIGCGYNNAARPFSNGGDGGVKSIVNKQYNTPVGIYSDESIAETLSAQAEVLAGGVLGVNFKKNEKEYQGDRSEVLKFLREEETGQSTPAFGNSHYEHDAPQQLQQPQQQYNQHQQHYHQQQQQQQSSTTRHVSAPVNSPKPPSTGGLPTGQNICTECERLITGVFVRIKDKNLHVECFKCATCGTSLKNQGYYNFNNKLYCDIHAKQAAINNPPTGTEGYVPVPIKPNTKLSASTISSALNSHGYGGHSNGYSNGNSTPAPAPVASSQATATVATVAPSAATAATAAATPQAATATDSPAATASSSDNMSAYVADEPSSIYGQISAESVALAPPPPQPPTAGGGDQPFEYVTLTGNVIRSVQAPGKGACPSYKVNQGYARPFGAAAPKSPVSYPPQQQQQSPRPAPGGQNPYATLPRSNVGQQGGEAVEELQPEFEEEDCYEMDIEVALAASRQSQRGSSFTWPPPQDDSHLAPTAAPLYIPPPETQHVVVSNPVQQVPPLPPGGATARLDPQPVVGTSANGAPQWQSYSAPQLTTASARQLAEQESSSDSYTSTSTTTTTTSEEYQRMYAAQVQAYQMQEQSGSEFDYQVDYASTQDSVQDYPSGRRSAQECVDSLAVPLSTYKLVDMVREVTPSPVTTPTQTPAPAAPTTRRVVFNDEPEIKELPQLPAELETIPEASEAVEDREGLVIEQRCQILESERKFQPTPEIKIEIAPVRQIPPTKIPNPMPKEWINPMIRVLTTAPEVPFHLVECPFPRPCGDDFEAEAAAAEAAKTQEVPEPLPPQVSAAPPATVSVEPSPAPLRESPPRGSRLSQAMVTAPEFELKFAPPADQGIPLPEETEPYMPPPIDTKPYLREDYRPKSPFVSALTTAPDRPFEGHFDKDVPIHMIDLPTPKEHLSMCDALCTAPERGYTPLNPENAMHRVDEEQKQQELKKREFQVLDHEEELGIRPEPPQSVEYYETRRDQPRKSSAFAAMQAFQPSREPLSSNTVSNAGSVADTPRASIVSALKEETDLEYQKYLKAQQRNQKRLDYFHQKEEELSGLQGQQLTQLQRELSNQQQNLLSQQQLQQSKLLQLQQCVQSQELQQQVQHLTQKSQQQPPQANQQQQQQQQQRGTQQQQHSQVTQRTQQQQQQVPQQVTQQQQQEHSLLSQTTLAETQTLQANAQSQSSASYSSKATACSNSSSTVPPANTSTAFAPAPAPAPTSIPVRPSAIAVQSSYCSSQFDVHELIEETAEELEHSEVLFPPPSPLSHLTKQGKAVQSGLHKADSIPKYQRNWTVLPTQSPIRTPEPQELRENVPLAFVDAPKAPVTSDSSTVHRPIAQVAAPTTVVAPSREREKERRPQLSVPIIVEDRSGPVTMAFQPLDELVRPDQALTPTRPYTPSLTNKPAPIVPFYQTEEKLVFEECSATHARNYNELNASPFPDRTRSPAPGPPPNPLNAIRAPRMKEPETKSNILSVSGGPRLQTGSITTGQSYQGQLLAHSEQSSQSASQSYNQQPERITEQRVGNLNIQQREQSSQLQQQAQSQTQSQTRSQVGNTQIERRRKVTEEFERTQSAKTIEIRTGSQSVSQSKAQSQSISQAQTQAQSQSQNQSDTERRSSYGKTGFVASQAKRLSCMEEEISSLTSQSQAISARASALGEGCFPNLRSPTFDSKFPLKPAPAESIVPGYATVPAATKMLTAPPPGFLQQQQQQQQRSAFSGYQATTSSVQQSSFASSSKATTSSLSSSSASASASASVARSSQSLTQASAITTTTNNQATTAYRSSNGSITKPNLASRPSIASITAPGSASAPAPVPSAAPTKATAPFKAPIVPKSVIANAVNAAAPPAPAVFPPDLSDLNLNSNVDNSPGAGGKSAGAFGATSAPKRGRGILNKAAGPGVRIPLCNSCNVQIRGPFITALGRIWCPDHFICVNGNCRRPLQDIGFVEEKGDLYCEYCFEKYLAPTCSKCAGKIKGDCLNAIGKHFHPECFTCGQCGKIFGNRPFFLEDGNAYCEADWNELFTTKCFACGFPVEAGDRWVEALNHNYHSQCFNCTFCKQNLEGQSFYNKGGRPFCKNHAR

Substance: 6xHis-Zasp52-PK-FLAG (natural protein)
- stoichiometry N: 2
